Experimental data: publication PMC8278493, “Structure of the TELO2-TTI1-TTI2 complex and its function in TOR recruitment to the R2TP chaperone” (Cell Reports, 2021)
Each block holds one binder with its values, some of them ahead of it.

B5: S. cerevisiae Rvb1p-Rvb2p complex (complex)
chain 1: MVAISEVKENPGVNSSNSGAVTRTAAHTHIKGLGLDESGVAKRVEGGFVGQIEAREACGVIVDLIKAKKMSGRAILLAGGPSTGKTALALAISQELGPKVPFCPLVGSELYSVEVKKTETLMENFRRAIGLRIKETKEVYEGEVTELTPEDAENPLGGYGKTISHVIVGLKSAKGTKTLRLDPTIYESIQREKVSIGDVIYIEANTGAVKRVGRSDAYATEFDLETEEYVPLPKGEVHKKKEIVQDVTLHDLDVANARPQGGQDVISMMGQLLKPKKTEITEKLRQEVNKVVAKYIDQGVAELIPGVLFIDEVNMLDIEIFTYLNKALESNIAPVVVLASNRGMTTVRGTEDVISPHGVPPDLIDRLLIVRTLPYDKDEIRTIIERRATVERLQVESSALDLLATMGTETSLRYALQLLAPCGILAQTSNRKEIVVNDVNEAKLLFLDAKRSTKILETSANYL
chain 2: MSIQTSDPNETSDLKSLSLIAAHSHITGLGLDENLQPRPTSEGMVGQLQARRAAGVILKMVQNGTIAGRAVLVAGPPSTGKTALAMGVSQSLGKDVPFTAIAGSEIFSLELSKTEALTQAFRKSIGIKIKEETELIEGEVVEIQIDRSITGGHKQGKLTIKTTDMETIYELGNKMIDGLTKEKVLAGDVISIDKASGKITKLGRSFARSRDYDAMGADTRFVQCPEGELQKRKTVVHTVSLHEIDVINSRTQGFLALFTGDTGEIRSEVRDQINTKVAEWKEEGKAEIVPGVLFIDEVHMLDIECFSFINRALEDEFAPIVMMATNRGVSKTRGTNYKSPHGLPLDLLDRSIIITTKSYNEQEIKTILSIRAQEEEVELSSDALDLLTKTGVETSLRYSSNLISVAQQIAMKRKNNTVEVEDVKRAYLLFLDSARSVKYVQENESQYIDDQGNVQISIAKSADPDAMDTTE
notes: Rvb1p, Saccharomyces cerevisiae; Rvb2p, Saccharomyces cerevisiae; also called yR2; R2; source: expressed and purified as previously described (Rivera-Calzada et al., 2017); copies: 3 + 3

Experiments:
Settings in all cases: both partners purified
[1] = target: T1, human TTI1, full length, untagged (human, UniProt O43156 1-1089); assay: cryo-EM structure; human R2 saturated with an excess of TTT; symmetry expansion and multi-body refinement; ADP in all six sites
T1 construct: TTI1, human, 1089 residues; In PDB 7OLE TTI1 is modelled as poly-alanine helices only; also called full-length untagged TTI1; source: Sf9, co-expressed with GST-TTI2 constructs (in lysate); co-expressed with TTI2 and TELO2 and purified within TTT
T1 sequence (O43156 whole entry): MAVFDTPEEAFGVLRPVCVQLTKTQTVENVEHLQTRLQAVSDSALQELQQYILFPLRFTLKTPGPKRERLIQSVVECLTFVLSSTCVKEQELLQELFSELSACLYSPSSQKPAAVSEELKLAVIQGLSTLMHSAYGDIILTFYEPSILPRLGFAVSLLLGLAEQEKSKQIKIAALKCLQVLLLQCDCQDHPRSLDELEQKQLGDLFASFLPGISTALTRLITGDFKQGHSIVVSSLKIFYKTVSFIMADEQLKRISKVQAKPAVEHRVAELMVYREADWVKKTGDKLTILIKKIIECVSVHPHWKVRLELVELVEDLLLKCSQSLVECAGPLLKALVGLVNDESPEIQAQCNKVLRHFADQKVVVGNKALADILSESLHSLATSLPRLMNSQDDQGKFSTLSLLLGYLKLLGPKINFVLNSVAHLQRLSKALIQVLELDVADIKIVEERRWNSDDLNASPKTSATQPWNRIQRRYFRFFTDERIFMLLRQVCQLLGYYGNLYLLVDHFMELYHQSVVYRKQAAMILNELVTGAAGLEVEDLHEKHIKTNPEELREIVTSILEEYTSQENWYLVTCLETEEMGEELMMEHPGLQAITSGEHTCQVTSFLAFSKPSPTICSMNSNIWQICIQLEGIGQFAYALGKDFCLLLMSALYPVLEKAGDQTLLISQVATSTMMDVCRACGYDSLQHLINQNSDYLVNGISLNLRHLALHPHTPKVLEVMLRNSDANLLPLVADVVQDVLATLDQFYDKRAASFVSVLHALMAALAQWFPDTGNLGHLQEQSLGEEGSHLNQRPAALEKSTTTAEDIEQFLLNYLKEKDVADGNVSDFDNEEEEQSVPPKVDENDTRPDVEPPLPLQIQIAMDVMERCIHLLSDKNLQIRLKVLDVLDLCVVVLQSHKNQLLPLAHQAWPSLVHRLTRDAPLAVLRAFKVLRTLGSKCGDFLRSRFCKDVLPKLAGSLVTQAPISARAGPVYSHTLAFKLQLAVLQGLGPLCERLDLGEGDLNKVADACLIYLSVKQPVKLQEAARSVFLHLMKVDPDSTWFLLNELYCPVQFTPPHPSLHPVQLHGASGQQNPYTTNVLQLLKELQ

[2] = target: T2, human TTI1-TTI2 subcomplex (human, UniProt O43156 1-1089; Q6NXR4 1-508); assay: pull-down; GST beads hold the GST-tag on TELO2 (5 μM); 2 μM RUVBL1/2, RUVBL1/2ΔDII or isolated DII domains; 20 mM HEPES pH 7.85, 140 mM NaCl, 0.001% Tween 20; 45 min at 4°C; Coomassie-stained SDS-PAGE
T2 construct: TTI1, human, 1089 residues; TTI2, human, 508 residues; Cloned as TTI1 and GST-TTI2; the methods name both a cleavage of the GST-tag and GST-TTI2-TTI1 as a sample of the pull-downs; also called T2; source: Sf9, co-expressed, purified
T2 sequence (O43156 whole entry, the tested form may be a part, one chain of several): as the sequence (O43156 whole entry) above

[3] = target: B5; assay: pull-down; strep beads hold the tandem strep-tag on Tah1p in yeast TP or R2TP; 20 mM HEPES pH 7.85, 140 mM NaCl, 0.5 mM TCEP, 0.03% CHAPS; 45 min at 4°C; Coomassie-stained SDS-PAGE
[4] = target: T3, S. cerevisiae Tel2p-Tti1p-Tti2p complex (S. cerevisiae, UniProt P53038 1-688; P36097 1-1038; P47168 1-421); assay: as above
T3 construct: Tel2p, Saccharomyces cerevisiae; Tti1p, Saccharomyces cerevisiae; Tti2p, Saccharomyces cerevisiae; Purified from insect cells to ensure post-translational modifications on Tel2p; The methods say in general that the GST-tag was cleaved; also called yTTT; yeast TTT; source: Sf9, co-infected with Tti1p-Tti2p and Tel2p viruses, purified; copies: + +
T3 sequence (P53038 whole entry, chain 1 of 3): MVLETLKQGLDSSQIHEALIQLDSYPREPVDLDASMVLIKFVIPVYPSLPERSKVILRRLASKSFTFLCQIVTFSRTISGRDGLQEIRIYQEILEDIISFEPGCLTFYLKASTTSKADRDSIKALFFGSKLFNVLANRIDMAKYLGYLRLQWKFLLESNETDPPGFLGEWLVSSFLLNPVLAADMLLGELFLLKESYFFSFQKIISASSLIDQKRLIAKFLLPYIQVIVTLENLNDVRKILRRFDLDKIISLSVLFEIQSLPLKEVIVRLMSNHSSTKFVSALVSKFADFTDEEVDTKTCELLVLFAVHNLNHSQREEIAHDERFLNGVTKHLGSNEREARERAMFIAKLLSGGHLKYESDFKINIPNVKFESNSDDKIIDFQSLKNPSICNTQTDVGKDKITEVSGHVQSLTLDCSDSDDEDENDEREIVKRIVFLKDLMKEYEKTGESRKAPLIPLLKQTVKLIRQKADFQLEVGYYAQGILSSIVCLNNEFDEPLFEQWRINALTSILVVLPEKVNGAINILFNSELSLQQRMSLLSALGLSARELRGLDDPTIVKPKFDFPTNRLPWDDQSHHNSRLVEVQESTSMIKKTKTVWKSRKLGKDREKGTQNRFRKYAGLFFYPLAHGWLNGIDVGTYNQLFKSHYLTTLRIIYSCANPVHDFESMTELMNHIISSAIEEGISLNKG
T3 sequence (P36097 whole entry, chain 2 of 3): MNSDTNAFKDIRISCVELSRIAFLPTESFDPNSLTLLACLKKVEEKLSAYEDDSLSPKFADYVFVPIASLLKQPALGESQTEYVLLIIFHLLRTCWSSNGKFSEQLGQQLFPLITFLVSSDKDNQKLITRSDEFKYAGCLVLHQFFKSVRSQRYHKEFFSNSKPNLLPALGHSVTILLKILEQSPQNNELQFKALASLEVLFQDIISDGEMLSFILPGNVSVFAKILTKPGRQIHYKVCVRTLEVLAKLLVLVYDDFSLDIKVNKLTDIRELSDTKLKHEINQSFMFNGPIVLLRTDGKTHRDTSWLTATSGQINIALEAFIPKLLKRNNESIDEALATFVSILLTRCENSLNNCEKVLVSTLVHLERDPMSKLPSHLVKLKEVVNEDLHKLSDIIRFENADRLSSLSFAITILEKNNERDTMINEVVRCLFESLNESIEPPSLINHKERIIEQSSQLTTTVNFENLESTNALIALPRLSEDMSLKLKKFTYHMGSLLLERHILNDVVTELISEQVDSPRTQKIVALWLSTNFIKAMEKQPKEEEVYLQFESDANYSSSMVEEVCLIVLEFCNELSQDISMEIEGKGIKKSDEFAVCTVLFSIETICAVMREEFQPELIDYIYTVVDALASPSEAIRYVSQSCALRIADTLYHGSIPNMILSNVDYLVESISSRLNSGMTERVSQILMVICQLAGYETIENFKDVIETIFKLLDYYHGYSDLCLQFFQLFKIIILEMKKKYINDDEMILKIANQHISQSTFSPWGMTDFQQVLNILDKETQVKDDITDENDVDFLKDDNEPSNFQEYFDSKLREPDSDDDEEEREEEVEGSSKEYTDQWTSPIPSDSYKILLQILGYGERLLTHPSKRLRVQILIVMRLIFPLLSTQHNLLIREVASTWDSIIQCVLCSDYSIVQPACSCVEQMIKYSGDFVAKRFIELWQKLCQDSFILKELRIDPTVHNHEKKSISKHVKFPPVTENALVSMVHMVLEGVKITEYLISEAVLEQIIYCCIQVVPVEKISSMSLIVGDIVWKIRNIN
T3 sequence (P47168 whole entry, chain 3 of 3): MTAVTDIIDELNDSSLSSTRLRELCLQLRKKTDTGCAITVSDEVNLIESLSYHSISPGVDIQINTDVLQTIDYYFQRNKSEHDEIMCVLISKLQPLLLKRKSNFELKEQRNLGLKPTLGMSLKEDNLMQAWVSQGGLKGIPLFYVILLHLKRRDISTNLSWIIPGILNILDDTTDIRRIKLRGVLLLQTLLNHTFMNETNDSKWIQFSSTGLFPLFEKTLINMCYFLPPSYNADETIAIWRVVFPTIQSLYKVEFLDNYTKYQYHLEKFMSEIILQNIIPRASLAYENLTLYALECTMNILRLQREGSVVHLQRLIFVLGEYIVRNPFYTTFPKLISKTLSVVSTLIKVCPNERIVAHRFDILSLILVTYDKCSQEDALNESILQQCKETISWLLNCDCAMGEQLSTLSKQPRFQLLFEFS

[5] = target: T4, S. cerevisiae TTT complex in which Tti1p carries a C-terminal FLAG-tag (S. cerevisiae, UniProt P53038 1-688; P36097 1-1038; P47168 1-421); assay: co-IP; anti-FLAG beads hold yeast TTT by FLAG-tagged Tti1p; purified KmTOR-KmLst8, with or without yeast R2; Coomassie-stained SDS-PAGE
T4 construct: Tel2p, Saccharomyces cerevisiae; Tti1p, Saccharomyces cerevisiae; Tti2p, Saccharomyces cerevisiae; The cloning of the FLAG-tagged Tti1p is not described in the methods; also called FLAG-tagged TTT; FLAG-tagged Tti1p; source: Sf9, purified; not shown: FLAG, C-terminal, kept; copies: + +
T4 sequence (P53038 whole entry, chain 1 of 3): as the sequence (P53038 whole entry, chain 1 of 3) above
T4 sequence (P36097 whole entry, chain 2 of 3): as the sequence (P36097 whole entry, chain 2 of 3) above
T4 sequence (P47168 whole entry, chain 3 of 3): as the sequence (P47168 whole entry, chain 3 of 3) above

binding result [1]: binds
B1: human TELO2 (as in the purified TTT complex) (natural protein, UniProt Q9Y4R8 1-837, looked up)
chain: MEPAPSEVRLAVREAIHALSSSEDGGHIFCTLESLKRYLGEMEPPALPREKEEFASAHFSPVLRCLASRLSPAWLELLPHGRLEELWASFFLEGPADQAFLVLMETIEGAAGPSFRLMKMARLLARFLREGRLAVLMEAQCRQQTQPGFILLRETLLGKVVALPDHLGNRLQQENLAEFFPQNYFRLLGEEVVRVLQAVVDSLQGGLDSSVSFVSQVLGKACVHGRQQEILGVLVPRLAALTQGSYLHQRVCWRLVEQVPDRAMEAVLTGLVEAALGPEVLSRLLGNLVVKNKKAQFVMTQKLLFLQSRLTTPMLQSLLGHLAMDSQRRPLLLQVLKELLETWGSSSAIRHTPLPQQRHVSKAVLICLAQLGEPELRDSRDELLASMMAGVKCRLDSSLPPVRRLGMIVAEVVSARIHPEGPPLKFQYEEDELSLELLALASPQPAGDGASEAGTSLVPATAEPPAETPAEIVDGGVPQAQLAGSDSDLDSDDEFVPYDMSGDRELKSSKAPAYVRDCVEALTTSEDIERWEAALRALEGLVYRSPTATREVSVELAKVLLHLEEKTCVVGFAGLRQRALVAVTVTDPAPVADYLTSQFYALNYSLRQRMDILDVLTLAAQELSRPGCLGRTPQPGSPSPNTPCLPEAAVSQPGSAVASDWRVVVEERIRSKTQRLSKGGPRQGPAGSPSRFNSVAGHFFFPLLQRFDRPLVTFDLLGEDQLVLGRLAHTLGALMCLAVNTTVAVAMGKALLEFVWALRFHIDAYVRQGLLSAVSSVLLSLPAARLLEDLMDELLEARSWLADVAEKDPDEDCRTLALRALLLLQRLKNRLLPPASP
notes: TELO2, human; Only the N-terminal domain (TELO2-N) is seen in the map; source: Sf9, purified within TTT; not shown: GST, N-terminal, cleaved

binding result [2]: binds
B2: human GST-TELO2 (natural protein, UniProt Q9Y4R8 1-837, looked up)
chain: MEPAPSEVRLAVREAIHALSSSEDGGHIFCTLESLKRYLGEMEPPALPREKEEFASAHFSPVLRCLASRLSPAWLELLPHGRLEELWASFFLEGPADQAFLVLMETIEGAAGPSFRLMKMARLLARFLREGRLAVLMEAQCRQQTQPGFILLRETLLGKVVALPDHLGNRLQQENLAEFFPQNYFRLLGEEVVRVLQAVVDSLQGGLDSSVSFVSQVLGKACVHGRQQEILGVLVPRLAALTQGSYLHQRVCWRLVEQVPDRAMEAVLTGLVEAALGPEVLSRLLGNLVVKNKKAQFVMTQKLLFLQSRLTTPMLQSLLGHLAMDSQRRPLLLQVLKELLETWGSSSAIRHTPLPQQRHVSKAVLICLAQLGEPELRDSRDELLASMMAGVKCRLDSSLPPVRRLGMIVAEVVSARIHPEGPPLKFQYEEDELSLELLALASPQPAGDGASEAGTSLVPATAEPPAETPAEIVDGGVPQAQLAGSDSDLDSDDEFVPYDMSGDRELKSSKAPAYVRDCVEALTTSEDIERWEAALRALEGLVYRSPTATREVSVELAKVLLHLEEKTCVVGFAGLRQRALVAVTVTDPAPVADYLTSQFYALNYSLRQRMDILDVLTLAAQELSRPGCLGRTPQPGSPSPNTPCLPEAAVSQPGSAVASDWRVVVEERIRSKTQRLSKGGPRQGPAGSPSRFNSVAGHFFFPLLQRFDRPLVTFDLLGEDQLVLGRLAHTLGALMCLAVNTTVAVAMGKALLEFVWALRFHIDAYVRQGLLSAVSSVLLSLPAARLLEDLMDELLEARSWLADVAEKDPDEDCRTLALRALLLLQRLKNRLLPPASP
notes: TELO2, human; The tagged subunit of m4, as the bait with which TTI1-TTI2 is found; also called GST-TEL2; not shown: GST, N-terminal, kept

binding result [3]: binds | binding result [4]: binds
B3: S. cerevisiae Tah1p-Pih1p complex with a tandem strep-tag on the N terminus of Tah1p (complex)
chain 1: MSQFEKQKEQGNSLFKQGLYREAVHCYDQLITAQPQNPVGYSNKAMALIKLGEYTQAIQMCQQGLRYTSTAEHVAIRSKLQYRLELAQGAVGSVQIPVVEVDELPEGYDRS
chain 2: MADFLLRPIKQRHRNEDKYVSVDAADGSVSKIEPIADFVIKTKLLSANGPEKLQDGRKVFINVCHSPLVPKPEVDFNARIVFPLIIQNEWEIPIITSCYRMDHDKKGQECYVWDCCINSDCSRWICDDIQLREILVEWCLESCEIRDSVVLCRDRIAFPKMKKKGAELPALEVLNDELHQDYKAKMHKIIEEEAGDPMSILRGRNDDGDDNNDPDDGTLPPLFPIENKISGAKIEEIDKNEIAHRNLKQAPAPAPAPHEQQEDVPEYEVKMKRFKGAAYKLRILIENKAPNSKPDRFSPSYNFAENILYINGKLSIPLPRDIVVNAADIKIFHIRKERTLYIYI
notes: Tah1p, Saccharomyces cerevisiae; Pih1p, Saccharomyces cerevisiae; also called yTP; TP; source: expressed and purified as previously described (Rivera-Calzada et al., 2017); not shown: tandem Strep, N-terminal, kept

binding result [1]: binds
B4: human TTI2 (as in the purified TTT complex) (natural protein, UniProt Q6NXR4 1-508, looked up)
chain: MELDSALEAPSQEDSNLSEELSHSAFGQAFSKILHCLARPEARRGNVKDAVLKDLGDLIEATEFDRLFEGTGARLRGMPETLGQVAKALEKYAAPSKEEEGGGDGHSEAAEKAAQVGLLFLKLLGKVETAKNSLVGPAWQTGLHHLAGPVYIFAITHSLEQPWTTPRSREVAREVLTSLLQVTECGSVAGFLHGENEDEKGRLSVILGLLKPDLYKESWKNNPAIKHVFSWTLQQVTRPWLSQHLERVLPASLVISDDYQTENKILGVHCLHHIVLNVPAADLLQYNRAQVLYHAISNHLYTPEHHLIQAVLLCLLDLFPILEKTLHWKGDGARPTTHCDEVLRLILTHMEPEHRLLLRRTYARNLPAFVNRLGILTVRHLKRLERVIIGYLEVYDGPEEEARLKILETLKLLMQHTWPRVSCRLVVLLKALLKLICDVARDPNLTPESVKSALLQEATDCLILLDRCSQGRVKGLLAKIPQSCEDRKVVNYIRKVQQVSEGAPYNGT
notes: TTI2, human, 508 residues; In PDB 7OLE TTI2 is modelled as poly-alanine helices only; source: Sf9, purified within TTT

Binder: B5
binding result [5]: binds
